The target in test [1] is AKAP 150 (rat A-kinase anchor protein) (rat) (UniProt P24587). Nature of the test: cell-based or functional assay.
Test [2] concerns the target IL-6 (human, in degenerative IVD conditioned media) (human) (UniProt P05231). Nature of the test: cell-based or functional assay.
UniProt P05231, sequence (P05231 30-212 limits assumed): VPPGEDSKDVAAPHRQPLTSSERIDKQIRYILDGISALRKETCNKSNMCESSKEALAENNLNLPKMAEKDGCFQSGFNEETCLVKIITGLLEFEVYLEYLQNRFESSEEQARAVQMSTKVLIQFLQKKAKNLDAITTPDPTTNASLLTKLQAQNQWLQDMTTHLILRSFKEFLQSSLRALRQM

UniProt P24587, sequence (P24587 whole entry): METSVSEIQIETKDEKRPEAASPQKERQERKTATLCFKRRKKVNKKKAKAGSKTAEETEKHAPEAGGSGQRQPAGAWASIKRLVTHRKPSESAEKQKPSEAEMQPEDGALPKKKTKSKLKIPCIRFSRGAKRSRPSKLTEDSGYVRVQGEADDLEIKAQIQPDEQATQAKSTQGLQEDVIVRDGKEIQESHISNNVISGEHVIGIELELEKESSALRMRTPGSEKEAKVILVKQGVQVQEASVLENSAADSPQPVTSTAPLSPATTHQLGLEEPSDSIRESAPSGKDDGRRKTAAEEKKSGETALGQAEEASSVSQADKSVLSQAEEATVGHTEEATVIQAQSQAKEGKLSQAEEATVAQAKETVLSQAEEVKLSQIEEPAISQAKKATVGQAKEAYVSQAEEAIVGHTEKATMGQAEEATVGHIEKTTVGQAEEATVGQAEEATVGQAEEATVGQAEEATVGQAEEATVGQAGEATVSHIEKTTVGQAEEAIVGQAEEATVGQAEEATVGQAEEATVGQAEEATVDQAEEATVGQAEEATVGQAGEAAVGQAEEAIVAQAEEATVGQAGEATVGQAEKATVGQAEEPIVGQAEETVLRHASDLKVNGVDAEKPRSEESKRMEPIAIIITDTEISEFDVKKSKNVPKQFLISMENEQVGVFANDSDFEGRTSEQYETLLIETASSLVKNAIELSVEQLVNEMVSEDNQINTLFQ

For the substance “AKAP inhibitor peptide St-Ht31 (Promega)”, in test [1], the percentage of rat DRG neurons firing at 39° C. in degenerative IVD conditioned media stood at 15.5%.

As for Control peptide St-Ht31P (Promega), the percentage of rat DRG neurons firing at 39° C. in degenerative IVD conditioned media in test [1] is 61.9%.

Substance “Mouse isotype control antibody (Life Technologies)” had a maximum firing response of DRG neurons (Boltzmann fit) in test [2] of 66%.

The values above are taken from patent publication US20210380975A1.
